Series [1] has as its system Oc1cc(O)cc(/C=C/c2ccc(O)c(O)c2)c1. Kind of series: X-ray crystal structure of complex, MCD; the value is the apparent Km from steady-state kinetics. The class given is biochemical, Neurospora crassa. The settings on record: Fe(II) active site.
Another series has as its system CC=Cc1ccc(O)c(OC)c1. The experiment in a line: steady-state kinetics of cleavage to vanillin by purified enzyme (apparent Km). Format: biochemical, Neurospora crassa. The conditions noted are these: Fe(II).
Where [2] appears, read: ~[…]° rotation of the β-ring toward the vacancy left from the absent Thr side chain.
[3] abbreviates: β-ring rotated ~[…]° away from the Val151 side chain.

By Km is commonly meant the concentration of substrate that gives half-maximal velocity. In general, kcat refers to the number of substrate molecules converted per active site and unit of time at saturation. The term kcat/Km denotes the turnover number divided by the Michaelis constant. Regarding “CAO1 (Neurospora crassa carotenoid oxygenase 1) (Neurospora crassa OR74A; T151G)”, the Km in series [1] (rotation of the β-ring toward the vacancy left from the absent Thr side chain) came out at 0.110 ± 0.013 µM. Also, in series [1] (setting [2]), the kcat amounted to 0.089 ± 0.003 s⁻¹ and the kcat/Km was 810000 ± 100000 M⁻¹ s⁻¹.
As for “CAO1 (Neurospora crassa carotenoid oxygenase 1) (Neurospora crassa OR74A; T151V)”, the Km with CC=Cc1ccc(O)c(OC)c1 was found to be 93.92 ± 12.27 µM; in series [1] (β-ring rotated away from the Val151 side chain), 0.027 ± 0.003 µM. The catalytic constant (kcat) in series [1] (setting [3]) was 1.04 ± 0.024 s⁻¹. In addition, in series [1] (setting [3]), the kcat/Km came out at 3.87e+07 ± 4.42e+06 M⁻¹ s⁻¹.
